Measurements from US20130209454A1 (CALIFORNIA INSTITUTE OF TECHNOLOGY, published 2013).
Where two headings read alike, the source gives them in different places.

What was measured:
Test in all cases: cell-based or functional assay
[1] = target: HIV-1 Env of strain ZM53M.PB12 (HIV-1)
[2] = target: HIV-1 Env of strain ZM214M.PL15 (HIV-1)
[3] = target: HIV-1 Env of strain ZM197M.PB7 (HIV-1)
[4] = target: HIV-1 Env of strain ZM135M.PL10a (HIV-1)
[5] = target: HIV-1 Env of strain CAAN5342.A2 (HIV-1)
[6] = target: HIV-1 Env of strain 1056_10_TA11_1826 (HIV-1)
[7] = target: HIV-1 Env of strain 1006_11_C3_1601 (HIV-1)
[8] = target: HIV-1 Env of strain R2184.c04 (HIV-1)
[9] = target: HIV-1 Env of strain C3347.c11 (HIV-1)
[10] = target: HIV-1 Env of strain 3301.v1.c24 (HIV-1)
[11] = target: HIV-1 Env of strain Q842.d12 (HIV-1)
[12] = target: HIV-1 Env of strain 6811.v7.c18 (HIV-1)
[13] = target: HIV-1 Env of strain Q23.17 (HIV-1)
[14] = target: HIV-1 Env of strain ZM53M.PB12 (HIV-1); remark: listed apart in the source
[15] = target: HIV-1 Env of strain Q769.d22 (HIV-1)
[16] = target: HIV-1 Env of strain 62357_14_D3_4589 (HIV-1)
[17] = target: HIV-1 Env of strain CNE17 (HIV-1)
[18] = target: HIV-1 Env of strain Ce0393_C3 (HIV-1)
[19] = target: HIV-1 Env of strain P0402_c2_11 (HIV-1)
[20] = target: HIV-1 Env of strain 3718.v3.c11 (HIV-1)
[21] = target: HIV-1 Env of strain ZM233M.PB6 (HIV-1)
[22] = target: HIV-1 Env of strain ZM109F.PB4 (HIV-1)
[23] = target: HIV-1 Env of strain T278-50 (HIV-1)
[24] = target: HIV-1 Env of strain ZM214M.PL15 (HIV-1); remark: listed apart in the source
[25] = target: HIV-1 Env of strain 1054_07_TC4_1499 (HIV-1)
[26] = target: HIV-1 Env of strain ZM197M.PB7 (HIV-1); remark: listed apart in the source
[27] = target: HIV-1 Env of strain X1254_c3 (HIV-1)
[28] = target: HIV-1 Env of strain ZM247v1(Rev-) (HIV-1)
[29] = target: HIV-1 Env of strain 3415.v1.c1 (HIV-1)
[30] = target: HIV-1 Env of strain QH0692.42 (HIV-1)
[31] = target: HIV-1 Env of strain ZM135M.PL10a (HIV-1); remark: listed apart in the source
[32] = target: HIV-1 Env of strain Du422.1 (HIV-1)
[33] = target: HIV-1 Env of strain T250-4 (HIV-1)
[34] = target: HIV-1 Env of strain Ce2010_F5 (HIV-1)
[35] = target: HIV-1 Env of strain 89-F1_2_25 (HIV-1)
[36] = target: HIV-1 Env of strain CNE30 (HIV-1)
[37] = target: HIV-1 Env of strain 0330.v4.c3 (HIV-1)
[38] = target: HIV-1 Env of strain Du172.17 (HIV-1)
[39] = target: HIV-1 Env of strain 3103.v3.c10 (HIV-1)
[40] = target: HIV-1 Env of strain T255-34 (HIV-1)
[41] = target: HIV-1 Env of strain Ce0682_E4 (HIV-1)
[42] = target: HIV-1 Env of strain WITO4160.33 (HIV-1)
[43] = target: HIV-1 Env of strain Q259.d2.17 (HIV-1)

B1: NIH45-46 IgG (antibody, V domains shown)
VH: QVRLSQSGGQMKKPGESMRLSCRASGYEFLNCPINWIRLAPGRRPEWMGWLKPRGGAVNYARKFQGRVTMTRDVYSDTAFLELRSLTSDDTAVYFCTRGKYCTARDYYNWDFEHWGRGAPVTVSS
VL: EIVLTQSPATLSLSPGETAIISCRTSQSGSLAWYQQRPGQAPRLVIYSGSTRAAGIPDRFSGSRWGADYNLSISNLESGDFGVYYCQQYEFFGQGTKVQVDI
[1]
  neutralization IC50: 0.65 µg/mL
[2]
  neutralization IC50: 0.05 µg/mL
[3]
  neutralization IC50: 0.14 µg/mL
[4]
  neutralization IC50: 0.36 µg/mL
[5]
  neutralization IC50: 0.15 µg/mL
[6]
  neutralization IC50: 0.094 µg/mL
[7]
  neutralization IC50: 0.027 µg/mL
[8]
  neutralization IC50: 0.034 µg/mL
[9]
  neutralization IC50: 0.029 µg/mL
[10]
  neutralization IC50: 0.009 µg/mL
[11]
  neutralization IC50: 0.031 µg/mL
[12]
  neutralization IC50: 0.035 µg/mL
[13]
  neutralization IC50: 0.14 µg/mL
[14]
  neutralization IC50: 0.175 µg/mL
[15]
  neutralization IC50: 0.009 µg/mL
[16]
  neutralization IC50: 0.06 µg/mL
[17]
  neutralization IC50: 0.261 µg/mL
[18]
  neutralization IC50: 0.334 µg/mL
[19]
  neutralization IC50: 0.073 µg/mL
[20]
  neutralization IC50: 19.6 µg/mL
[21]
  neutralization IC50: 2.5 µg/mL
[22]
  neutralization IC50: 0.095 µg/mL
[23]
  neutralization IC50: > 50 µg/mL
[24]
  neutralization IC50: 0.17 µg/mL
[25]
  neutralization IC50: 0.113 µg/mL
[26]
  neutralization IC50: 0.15 µg/mL
[27]
  neutralization IC50: 0.032 µg/mL
[28]
  neutralization IC50: 2.94 µg/mL
[29]
  neutralization IC50: 0.022 µg/mL
[30]
  neutralization IC50: 0.72 µg/mL
[31]
  neutralization IC50: 0.59 µg/mL
[32]
  neutralization IC50: > 50 µg/mL
[33]
  neutralization IC50: > 50 µg/mL
[34]
  neutralization IC50: 0.101 µg/mL
[35]
  neutralization IC50: > 50 µg/mL
[36]
  neutralization IC50: 0.309 µg/mL
[37]
  neutralization IC50: 0.09 µg/mL
[38]
  neutralization IC50: > 50 µg/mL
[39]
  neutralization IC50: 1.77 µg/mL
[40]
  neutralization IC50: 0.71 µg/mL
[41]
  neutralization IC50: 0.054 µg/mL
[42]
  neutralization IC50: 0.06 µg/mL
[43]
  neutralization IC50: 0.043 µg/mL
